US20190359693A1 (Janssen / Centocor, published 2019)
Like-named read-outs stand apart in the source and are kept apart here.

What was measured:
Test in all cases: cell-based or functional assay
[1] = target: HA of H3N? A/Env/MPJ193/09 (influenza A virus)
[2] = target: HA of H3N2 A/HK/1/68 (E443K) (influenza A virus)
[3] = target: HA of H3N2 A/HK/1/68 (G379R) (influenza A virus)
[4] = target: HA of H3N2 A/HK/1/68 (L331I, E443K) (influenza A virus)
[5] = target: HA of H3N2 A/HK/1/68 (I395V) (influenza A virus)
[6] = target: HA of H3N2 A/HK/1/68 (N85, E443K) (influenza A virus)
[7] = target: HA of H3N2 A/HK/1/68 (D375N, I395V) (influenza A virus)
[8] = target: HA of H3N2 A/HK/1/68 (R201G, L331I, E443K) (influenza A virus)
[9] = target: HA of H3N? A/Env/MPJ193/09 (influenza A virus); remark: listed apart in the source

Binder | VNA titer [1] [nM] | VNA titer [2] [nM] | VNA titer [3] [nM] | VNA titer [4] [nM] | VNA titer [5] [nM] | VNA titer [6] [nM] | VNA titer [7] [nM] | VNA titer [8] [nM] | VNA titer [9] [nM]
SD1038 (VHH, llama sdAb) VHH: EVQLVESGGGLVQPGGSLRLSCAVSISIFDIYAMDWYRQAPGKQRDLVATSFRDGSTNYADSVKGRFTISRDNAKNTLYLQMNSLKPEDTAVYLCHVSLYRDPLGVAGGMGVYWGKGALVTVSS | 185 | – | – | – | – | – | – | – | –
SD1046 (VHH) VHH: EVQLVESGGGLVQAGDSLRISCAASGRTLSIYSMGWFRQAPGKEREFVATIGWNSGRTFYPDSLKGRFTISRDNARNTLYLQMNNLRPEDTAVYYCAAAKGPLRLSSQADYWGQGTQVTVSS | – | 202 | 571 | 202 | > 1000 | 202 | > 1000 | 339 | –
SD1036 (VHH, llama sdAb) VHH: EVQLVESGGGLVQAGGSLKLSCAASGRTYAMGWFRQAPGKEREFVAHINALGTRTYYSDSVKGRFTISRDNAKNTEYLEMNNLKPEDTAVYYCTAQGQWRAAPVAVAAEYEFWGQGTQVTVSS | – | > 1000 | > 1000 | > 1000 | > 1000 | > 1000 | > 1000 | > 1000 | 41
